Assays:
[1] = target: human iNOS oxygenase domain, recombinant (human); experiment: ITC
[2] = target: human iNOS oxygenase domain, recombinant (human); experiment: SPR

Sequence of human iNOS oxygenase domain, recombinant (human) (P35228 whole entry, the tested form may be a part): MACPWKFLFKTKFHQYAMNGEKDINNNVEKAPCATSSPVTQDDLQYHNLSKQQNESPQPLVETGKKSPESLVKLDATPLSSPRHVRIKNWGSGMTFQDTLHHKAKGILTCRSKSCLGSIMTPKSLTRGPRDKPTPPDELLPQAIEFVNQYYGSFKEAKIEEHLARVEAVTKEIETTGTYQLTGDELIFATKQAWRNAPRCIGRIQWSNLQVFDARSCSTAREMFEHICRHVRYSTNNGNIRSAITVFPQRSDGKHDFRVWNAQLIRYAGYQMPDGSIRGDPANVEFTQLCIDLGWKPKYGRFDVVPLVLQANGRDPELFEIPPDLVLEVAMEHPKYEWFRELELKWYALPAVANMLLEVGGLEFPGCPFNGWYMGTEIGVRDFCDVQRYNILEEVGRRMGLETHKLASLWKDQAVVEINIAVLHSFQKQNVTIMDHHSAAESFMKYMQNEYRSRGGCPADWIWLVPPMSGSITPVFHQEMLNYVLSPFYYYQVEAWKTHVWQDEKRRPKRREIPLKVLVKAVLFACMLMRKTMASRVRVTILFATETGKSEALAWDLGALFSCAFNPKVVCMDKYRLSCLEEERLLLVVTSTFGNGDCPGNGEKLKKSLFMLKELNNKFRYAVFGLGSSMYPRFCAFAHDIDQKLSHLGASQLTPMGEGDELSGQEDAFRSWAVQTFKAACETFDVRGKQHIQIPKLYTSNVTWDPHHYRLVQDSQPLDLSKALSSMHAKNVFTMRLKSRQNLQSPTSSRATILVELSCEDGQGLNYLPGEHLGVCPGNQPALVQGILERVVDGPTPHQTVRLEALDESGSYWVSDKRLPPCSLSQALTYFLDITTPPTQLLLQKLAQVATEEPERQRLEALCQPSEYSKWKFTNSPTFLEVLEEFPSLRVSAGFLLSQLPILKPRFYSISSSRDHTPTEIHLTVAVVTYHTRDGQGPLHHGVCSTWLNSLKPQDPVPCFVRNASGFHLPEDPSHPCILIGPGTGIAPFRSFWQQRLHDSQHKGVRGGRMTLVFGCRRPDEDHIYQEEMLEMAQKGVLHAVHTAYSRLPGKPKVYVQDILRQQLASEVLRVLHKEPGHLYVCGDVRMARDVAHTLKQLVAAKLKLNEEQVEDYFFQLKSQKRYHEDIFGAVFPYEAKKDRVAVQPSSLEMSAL

dH [1]: -38.2 kcal/mol
stoichiometry N [1]: 0.505
Kd [2]: 7.11 nM
B1: Nitric oxide synthase interacting protein (NOSIP), full length, recombinant (natural protein)
chain: MTRHGKNCTAGAVYTYHEKKKDTAASGYGTQNIRLSRDAVKDFDCCCLSLQPCHDPVVTPDGYLYEREAILEYILHQKKEIARQMKAYEKQRGTRREEQKELQRAASQDHVRGFLEKESAIVSRPLNPFTAKALSGTSPDDVQPGPSVGPPSKDKDKVLPSFWIPSLTPEAKATKLEKPSRTVTCPMSGKPLRMSDLTPVHFTPLDSSVDRVGLITRSERYVCAVTRDSLSNATPCAVLRPSGAVVTLECVEKLIRKDMVDPVTGDKLTDRDIIVLQRGGTGFAGSGVKLQAEKSRPVMQA

Source: doi:10.1101/038398
